Biological target: T1, nSR100 (Mus musculus, UniProt Q8BKA3)
T1 construct: host or cells: mouse N2A cells
T1 sequence (Q8BKA3 1-608): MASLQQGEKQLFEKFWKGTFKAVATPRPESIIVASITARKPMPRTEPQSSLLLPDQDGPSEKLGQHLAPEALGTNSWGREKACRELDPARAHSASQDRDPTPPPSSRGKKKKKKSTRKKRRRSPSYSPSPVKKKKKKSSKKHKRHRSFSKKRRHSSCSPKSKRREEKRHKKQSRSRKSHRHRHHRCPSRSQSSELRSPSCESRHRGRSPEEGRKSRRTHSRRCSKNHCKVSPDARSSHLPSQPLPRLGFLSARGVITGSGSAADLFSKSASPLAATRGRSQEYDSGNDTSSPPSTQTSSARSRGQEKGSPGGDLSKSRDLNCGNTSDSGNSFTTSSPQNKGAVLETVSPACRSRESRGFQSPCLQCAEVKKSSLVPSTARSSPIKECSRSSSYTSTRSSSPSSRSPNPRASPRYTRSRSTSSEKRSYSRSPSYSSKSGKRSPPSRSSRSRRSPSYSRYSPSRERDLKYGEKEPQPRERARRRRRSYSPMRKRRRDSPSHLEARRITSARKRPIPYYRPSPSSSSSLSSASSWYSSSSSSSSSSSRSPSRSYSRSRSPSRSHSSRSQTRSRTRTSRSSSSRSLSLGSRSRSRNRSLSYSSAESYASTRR
Assay: AP-MS nSR100 interaction partners from mouse N2A cells (Table 5)
Type: binding
Conditions: for Spectra (number of spectra for the prey in the purification of the bait): AP-MS
Source text: By applying affinity purification coupled to mass-spectrometry (AP-MS), several interaction nSR100 partner proteins were detected that provide insight into mechanisms of post-translational regulation of nSR100 levels.

AvgP (average of the SAINT scores) (bait Srrm4): 1 | MaxP (maximal SAINT score) (bait Srrm4): 1 | FoldChange between the prey Avg spectra of the bait and control purifications (bait Srrm4, 0.1 added to prevent division by 0): 160 | AvgSpec (average number of spectra per replicate) (bait Srrm4, 2 replicates): 16 | Spectra (number of spectra for the prey in the purification of the bait) (bait Srrm4, biological replicate 1 (first number of the cell)): 13 | Spectra (number of spectra for the prey in the purification of the bait) (bait Srrm4, biological replicate 2 (second number of the cell)): 19 | SpecSum (bait Srrm4, sum of spectra over 2 replicates): 32
B1: Wdr6 (protein, UniProt Q99ME2 1-1125, looked up)
tRNA …: MDAFGDYVWPRATSELILLPVTGLECVGDRLLAGEGPDLLVYNLDLGGHLRMVKRVQNLLGHFLIHGFRVRPEPKGDLDSEAMIAVFGSKGLKVVKVSWGQSHLRELWRSGLWNMSDWIWDVRWIEGNVAVALGHNSVVLYDPVIGCMLQDVPCTDRCTLSSACLVGDTWKELTIVAGAVSNELLIWYPATALTDNKPVAPDRRVSGHVGVIFSMSYLESKGLLATASEDRSVRLWKVGDLRVPGGRVQNIGHCFGHSARVWQVKLLENYLISAGEDCVCLVWSHEGEILQAFRGHRGRGIRAIATHERQAWVVTGGDDSGIRLWHLAGRGYPGLGVSSLSFKSPSRPGALKAVTLAGSWRVLAVTDVGSLYLYDLEVKSWEQLLEDNRFRSYCLLEAAPGPEGFGLCALANGEGLVKVVPINTPTAAVEQKLFQGKVHSLSWALRGYEELLLLASGPGGVIACLEISAAPTGKAIFVKERCRYLLPPSKQRWHTCSAFLPPGDFLVCGDRRGSVMLFPVRPCLFKKPGAGSKAITAAEAPGAGSGSGGSESVPTGIGPVSTLHSLHGKQGVTSVTCHGGYLYSTGRDSSYFQLFVHGGHLQPVLRQKACRGMNWVAGLRMVPDGSMVILGFHANEFVVWSPRSHEKLHIVNCGGGHRSWAFSDTEAAMAFTYLKDGEVMLYRALGGCIRPNVILREGLHGREITCVKRVGTVTLGPEFEVPNLEHPDSLEPGSEGPGLIDIVITGSEDTTVCVLALPTTTGSAHALTSVCNHISSVRALAVWAVGTPGGPQDTRPGLTAQVVSAGGRAEIHCFSVMVTPDASTPSRLACHVMHLSSHRLDEYWDRQRNKHKMIKVDPETRYMSLAICELDNDRPGLGPGPLVAAACSDGAVRLFLLQDSGRILHLLAESFHHKRCVLKVHSFTHEAPNQRRRLILCSAATDGSLAFWDLTTAMDKGSTTLELPAHPGLPYQMGTPSMTVQAHSCGVNSLHTLPTPEGHHLVASGSEDGSLHVFTLAVKMPEPEEADGEAELVPQLCVLEEYSVPCAHAAHVTGVKILSPKLMVSASIDQRLTFWRLGQGEPTFMNSTVYHVPDVADMDCWPVSPEFGHRCALAGQGLEVYNWYD
